Article PMC6163367

Key:
[1] = molecular target: integrin α5β1 (mouse (endogenous in mouse synovial cells)) (UniProt P11688); assay: flow cytometry on cells; mouse synovial cells blocked with 1% BSA, incubated with 1, 10 or 75 uM HM-3-Fc for 1 h at 4 °C, no blocking antibody; FITC-protein A as probe for the Fc part
[2] = molecular target: integrin αvβ3 (mouse (endogenous in mouse synovial cells)) (UniProt P43406); assay: as above
[3] = molecular target: integrin α5β1 (mouse (endogenous in mouse synovial cells)) (UniProt P11688); assay: flow cytometry on cells; mouse synovial cells first incubated with anti-αvβ3, anti-α5β1 or both blocking antibodies for half an hour at 4 °C, washed, then 75 uM HM-3-Fc for 1 h at 4 °C; FITC-protein A as probe
[4] = molecular target: integrin αvβ3 (mouse (endogenous in mouse synovial cells)) (UniProt P43406); assay: as above

Chain of UniProt P43406 (P43406 31-1044, chain 1 of 2): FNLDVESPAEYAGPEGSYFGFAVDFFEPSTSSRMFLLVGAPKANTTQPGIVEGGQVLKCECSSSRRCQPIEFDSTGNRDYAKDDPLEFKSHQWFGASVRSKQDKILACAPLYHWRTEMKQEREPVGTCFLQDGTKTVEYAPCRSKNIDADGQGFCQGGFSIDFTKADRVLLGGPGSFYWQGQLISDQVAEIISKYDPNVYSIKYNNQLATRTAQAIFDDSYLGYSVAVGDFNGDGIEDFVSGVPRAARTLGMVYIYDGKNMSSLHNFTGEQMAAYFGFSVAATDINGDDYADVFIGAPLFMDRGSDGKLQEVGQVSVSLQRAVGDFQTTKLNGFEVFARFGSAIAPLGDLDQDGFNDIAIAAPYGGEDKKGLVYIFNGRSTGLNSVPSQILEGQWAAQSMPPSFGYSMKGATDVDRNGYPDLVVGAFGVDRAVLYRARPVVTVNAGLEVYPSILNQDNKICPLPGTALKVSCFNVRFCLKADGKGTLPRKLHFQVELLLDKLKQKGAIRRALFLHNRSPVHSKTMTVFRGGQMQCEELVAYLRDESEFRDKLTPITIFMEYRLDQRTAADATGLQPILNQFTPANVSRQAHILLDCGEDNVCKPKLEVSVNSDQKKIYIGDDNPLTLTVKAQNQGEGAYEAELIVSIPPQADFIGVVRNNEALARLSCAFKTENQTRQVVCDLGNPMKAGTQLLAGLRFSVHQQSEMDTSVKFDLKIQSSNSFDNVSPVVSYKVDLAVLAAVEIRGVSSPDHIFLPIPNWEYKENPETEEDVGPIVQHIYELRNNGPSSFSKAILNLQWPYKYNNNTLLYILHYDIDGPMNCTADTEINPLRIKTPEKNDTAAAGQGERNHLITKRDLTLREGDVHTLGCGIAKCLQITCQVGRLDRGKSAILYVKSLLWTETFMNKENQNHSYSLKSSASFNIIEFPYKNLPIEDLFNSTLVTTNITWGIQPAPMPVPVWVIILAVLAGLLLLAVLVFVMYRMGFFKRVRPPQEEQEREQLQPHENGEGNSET
Chain of UniProt P43406 (O54890 26-787, chain 2 of 2, further chain): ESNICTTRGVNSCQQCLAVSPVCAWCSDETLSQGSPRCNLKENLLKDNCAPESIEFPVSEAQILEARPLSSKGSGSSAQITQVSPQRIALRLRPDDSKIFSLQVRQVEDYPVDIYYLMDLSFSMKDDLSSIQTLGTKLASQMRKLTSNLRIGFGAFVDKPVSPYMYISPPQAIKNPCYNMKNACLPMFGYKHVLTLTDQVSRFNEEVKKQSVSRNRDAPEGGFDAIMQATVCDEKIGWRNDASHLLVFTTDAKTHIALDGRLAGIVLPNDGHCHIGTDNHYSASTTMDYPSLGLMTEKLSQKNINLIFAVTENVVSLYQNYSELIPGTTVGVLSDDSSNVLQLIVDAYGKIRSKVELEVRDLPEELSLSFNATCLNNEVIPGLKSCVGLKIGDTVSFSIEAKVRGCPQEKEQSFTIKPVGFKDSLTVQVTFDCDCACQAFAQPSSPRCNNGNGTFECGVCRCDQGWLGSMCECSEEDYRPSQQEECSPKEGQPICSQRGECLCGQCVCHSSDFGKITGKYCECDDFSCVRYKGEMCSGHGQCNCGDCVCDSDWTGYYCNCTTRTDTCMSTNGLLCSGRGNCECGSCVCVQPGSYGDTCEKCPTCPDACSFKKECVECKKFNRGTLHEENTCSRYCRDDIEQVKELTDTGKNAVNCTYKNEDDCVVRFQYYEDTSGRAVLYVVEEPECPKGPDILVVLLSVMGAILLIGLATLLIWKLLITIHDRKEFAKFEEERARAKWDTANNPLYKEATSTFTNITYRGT
Chain of UniProt P11688 (P11688 45-1053, chain 1 of 2): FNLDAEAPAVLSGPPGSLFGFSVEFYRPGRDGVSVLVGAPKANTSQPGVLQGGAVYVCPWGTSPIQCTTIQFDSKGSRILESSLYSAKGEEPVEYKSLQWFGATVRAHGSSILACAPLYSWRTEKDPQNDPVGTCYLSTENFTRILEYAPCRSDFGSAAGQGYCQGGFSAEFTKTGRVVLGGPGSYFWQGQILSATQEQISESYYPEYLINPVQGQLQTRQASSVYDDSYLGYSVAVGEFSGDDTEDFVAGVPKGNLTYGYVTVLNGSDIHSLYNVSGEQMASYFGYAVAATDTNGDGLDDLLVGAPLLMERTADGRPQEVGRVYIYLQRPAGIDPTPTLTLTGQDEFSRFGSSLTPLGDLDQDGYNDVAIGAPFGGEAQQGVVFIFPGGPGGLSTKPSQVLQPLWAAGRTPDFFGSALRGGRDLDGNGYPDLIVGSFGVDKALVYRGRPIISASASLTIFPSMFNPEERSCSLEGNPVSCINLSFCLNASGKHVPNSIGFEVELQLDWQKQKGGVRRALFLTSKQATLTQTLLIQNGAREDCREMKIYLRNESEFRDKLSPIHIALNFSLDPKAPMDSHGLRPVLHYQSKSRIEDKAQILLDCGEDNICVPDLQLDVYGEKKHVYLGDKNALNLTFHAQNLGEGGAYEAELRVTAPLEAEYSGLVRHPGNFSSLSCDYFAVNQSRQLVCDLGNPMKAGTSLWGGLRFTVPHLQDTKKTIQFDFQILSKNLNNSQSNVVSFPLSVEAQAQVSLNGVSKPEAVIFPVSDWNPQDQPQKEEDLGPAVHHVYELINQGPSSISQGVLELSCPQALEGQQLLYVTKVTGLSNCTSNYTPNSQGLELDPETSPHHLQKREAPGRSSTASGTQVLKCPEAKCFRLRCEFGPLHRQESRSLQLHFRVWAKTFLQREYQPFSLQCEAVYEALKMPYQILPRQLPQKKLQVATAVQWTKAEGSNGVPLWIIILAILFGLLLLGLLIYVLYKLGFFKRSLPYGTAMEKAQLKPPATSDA
Chain of UniProt P11688 (P09055 21-798, chain 2 of 2, further chain): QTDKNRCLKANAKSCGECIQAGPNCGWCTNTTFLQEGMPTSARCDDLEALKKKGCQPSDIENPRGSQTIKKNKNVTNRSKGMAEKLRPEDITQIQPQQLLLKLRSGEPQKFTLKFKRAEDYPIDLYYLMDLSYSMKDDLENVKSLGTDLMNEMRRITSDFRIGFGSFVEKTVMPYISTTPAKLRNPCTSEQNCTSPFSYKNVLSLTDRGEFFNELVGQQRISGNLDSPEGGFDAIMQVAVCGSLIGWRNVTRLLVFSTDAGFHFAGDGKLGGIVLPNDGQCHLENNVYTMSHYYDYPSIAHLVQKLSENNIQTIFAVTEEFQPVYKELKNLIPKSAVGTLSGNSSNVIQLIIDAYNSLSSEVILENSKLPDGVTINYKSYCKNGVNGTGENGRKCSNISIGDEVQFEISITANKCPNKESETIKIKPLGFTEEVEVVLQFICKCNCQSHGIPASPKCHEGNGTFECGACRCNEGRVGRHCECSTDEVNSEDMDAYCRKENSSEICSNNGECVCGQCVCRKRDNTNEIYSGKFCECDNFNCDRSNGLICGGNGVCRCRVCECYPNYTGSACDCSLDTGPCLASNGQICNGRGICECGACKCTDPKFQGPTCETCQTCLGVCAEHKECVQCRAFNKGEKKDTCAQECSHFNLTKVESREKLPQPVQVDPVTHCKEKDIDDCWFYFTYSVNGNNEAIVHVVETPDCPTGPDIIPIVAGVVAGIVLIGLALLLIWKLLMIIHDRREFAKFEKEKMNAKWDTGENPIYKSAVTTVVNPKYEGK

- binding rate (percent of cells positive) at 75 umol/L, unblocked cells that carry both integrins [1]: 70.7%
- binding rate (percent of cells positive) at 75 umol/L, unblocked cells that carry both integrins [2]: 70.7%
- binding rate (percent of cells positive) at 75 umol/L after block of αvβ3 and α5β1 together [3]: 0.01%
- binding rate (percent of cells positive) at 75 umol/L after block with an anti-α5β1 antibody [3]: 11.2%
- binding rate (percent of cells positive) at 75 umol/L after block of αvβ3 and α5β1 together [4]: 0.01%
- binding rate (percent of cells positive) at 75 umol/L after block with an anti-αvβ3 antibody [4]: 1.4%
Substance: HM-3-Fc fusion protein
